Laboratory results: patent US20250262210A1 (TRUSTEES OF COLUMBIA UNIVERSITY IN THE CITY OF NEW YORK, published 2025)

T1: LZTR1 R810W-FLAG (human, UniProt Q8N653 1-840)
T1 construct: Stably expressed in U87 cells by lentivirus; also called LZTR1-FLAG-R810W; LZTR1 RW; not shown: FLAG tag
T1 sequence (looked up): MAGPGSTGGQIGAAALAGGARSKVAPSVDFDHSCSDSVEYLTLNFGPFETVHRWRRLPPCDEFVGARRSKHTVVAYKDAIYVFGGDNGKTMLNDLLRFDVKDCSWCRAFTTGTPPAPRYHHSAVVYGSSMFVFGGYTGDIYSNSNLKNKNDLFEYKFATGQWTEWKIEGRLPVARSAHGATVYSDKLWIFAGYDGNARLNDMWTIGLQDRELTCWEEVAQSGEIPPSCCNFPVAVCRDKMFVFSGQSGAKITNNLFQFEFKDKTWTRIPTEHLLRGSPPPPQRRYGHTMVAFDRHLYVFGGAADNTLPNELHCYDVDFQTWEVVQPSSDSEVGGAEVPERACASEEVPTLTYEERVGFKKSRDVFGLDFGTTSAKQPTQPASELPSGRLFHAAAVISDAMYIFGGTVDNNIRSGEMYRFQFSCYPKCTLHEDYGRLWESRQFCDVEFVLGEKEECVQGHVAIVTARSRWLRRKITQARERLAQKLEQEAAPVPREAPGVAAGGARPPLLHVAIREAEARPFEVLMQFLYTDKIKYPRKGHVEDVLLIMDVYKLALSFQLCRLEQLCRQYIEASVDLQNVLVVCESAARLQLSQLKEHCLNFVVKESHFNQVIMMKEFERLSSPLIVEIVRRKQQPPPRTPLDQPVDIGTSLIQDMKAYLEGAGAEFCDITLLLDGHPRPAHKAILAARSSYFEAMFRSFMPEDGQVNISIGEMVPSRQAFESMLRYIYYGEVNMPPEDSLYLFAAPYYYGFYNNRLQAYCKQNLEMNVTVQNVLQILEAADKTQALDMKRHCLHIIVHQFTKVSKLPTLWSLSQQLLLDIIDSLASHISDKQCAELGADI

T2: LZTR1-FLAG (human, UniProt Q8N653 1-840)
T2 construct: Expressed in HEK 293T, HeLa or U87 cells; used as cell lysate; also called LZTR1 wild type-FLAG; LZTR1 WT; not shown: FLAG tag at the C-terminus
T2 sequence (looked up): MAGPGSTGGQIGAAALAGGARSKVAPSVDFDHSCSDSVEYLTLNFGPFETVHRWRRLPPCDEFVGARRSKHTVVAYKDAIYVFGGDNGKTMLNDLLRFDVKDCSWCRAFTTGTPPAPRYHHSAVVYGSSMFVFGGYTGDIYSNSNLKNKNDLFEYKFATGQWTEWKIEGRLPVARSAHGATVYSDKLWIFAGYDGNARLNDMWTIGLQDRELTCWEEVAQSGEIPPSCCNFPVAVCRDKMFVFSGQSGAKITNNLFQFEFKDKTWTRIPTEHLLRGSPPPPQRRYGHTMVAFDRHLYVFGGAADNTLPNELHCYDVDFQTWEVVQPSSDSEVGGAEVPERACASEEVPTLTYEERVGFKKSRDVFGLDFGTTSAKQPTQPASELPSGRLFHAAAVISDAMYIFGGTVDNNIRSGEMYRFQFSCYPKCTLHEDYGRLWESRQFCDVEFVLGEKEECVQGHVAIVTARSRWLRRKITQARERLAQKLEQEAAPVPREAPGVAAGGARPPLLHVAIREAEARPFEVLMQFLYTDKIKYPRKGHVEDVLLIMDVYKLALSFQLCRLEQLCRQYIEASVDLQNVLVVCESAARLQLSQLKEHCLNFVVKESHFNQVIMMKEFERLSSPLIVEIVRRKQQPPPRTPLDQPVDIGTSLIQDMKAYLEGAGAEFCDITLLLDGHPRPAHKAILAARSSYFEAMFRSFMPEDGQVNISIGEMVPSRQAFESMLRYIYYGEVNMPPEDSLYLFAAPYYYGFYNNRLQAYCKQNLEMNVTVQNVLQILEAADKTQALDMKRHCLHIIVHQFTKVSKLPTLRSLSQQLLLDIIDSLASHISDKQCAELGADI


What was measured:
LZTR1 R810W-FLAG = target: T1, LZTR1 R810W-FLAG; assay: IP/MS, LZTR1 R810W-FLAG, U87
Summary of the method: (§1)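 Read-out: spectral counts from LC-MS/MS (Orbitrap Fusion) after MaxQuant identification. Variable modifications were Met oxidation, protein N-terminal acetylation and N/Q deamidation.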

LZTR1-FLAG = target: T2, LZTR1-FLAG; assay: IP/MS, LZTR1 wild type-FLAG, U87
Summary of the method: as §1

Binder | binding result (LZTR1 R810W-FLAG) | binding result (LZTR1-FLAG)
IFI16 (other, human, UniProt Q16666 1-785, looked up) MGKKYKNIVLLKGLEVINDYHFRMVKSLLSNDLKLNLKMREEYDKIQIADLMEEKFRGDAGLGKLIKIFEDIPTLEDLAETLKKEKLKVKGPALSRKRKKEVDATSPAPSTSSTVKTEGAEATPGAQKRKKSTKEKAGPKGSKVSEEQTQPPSPAGAGMSTAMGRSPSPKTSLSAPPNSSSTENPKTVAKCQVTPRRNVLQKRPVIVKVLSTTKPFEYETPEMEKKIMFHATVATQTQFFHVKVLNTSLKEKFNGKKIIIISDYLEYDSLLEVNEESTVSEAGPNQTFEVPNKIINRAKETLKIDILHKQASGNIVYGVFMLHKKTVNQKTTIYEIQDDRGKMDVVGTGQCHNIPCEEGDKLQLFCFRLRKKNQMSKLISEMHSFIQIKKKTNPRNNDPKSMKLPQEQRQLPYPSEASTTFPESHLRTPQMPPTTPSSSFFTKKSEDTISKMNDFMRMQILKEGSHFPGPFMTSIGPAESHPHTPQMPPSTPSSSFLTTKSEDTISKMNDFMRMQILKEGSHFPGPFMTSIGPAESHPHTPQMPPSTPSSSFLTTLKPRLKTEPEEVSIEDSAQSDLKEVMVLNATESFVYEPKEQKKMFHATVATENEVFRVKVFNIDLKEKFTPKKIIAIANYVCRNGFLEVYPFTLVADVNADRNMEIPKGLIRSASVTPKINQLCSQTKGSFVNGVFEVHKKNVRGEFTYYEIQDNTGKMEVVVHGRLTTINCEEGDKLKLTCFELAPKSGNTGELRSVIHSHIKVIKTRKNKKDILNPDSSMETSPDFFF | binds | binds
IFT57 (other, human, UniProt Q9NWB7 1-429, looked up) MTAALAVVTTSGLEDGVPRSRGEGTGEVVLERGPGAAYHMFVVMEDLVEKLKLLRYEEEFLRKSNLKAPSRHYFALPTNPGEQFYMFCTLAAWLINKAGRPFEQPQEYDDPNATISNILSELRSFGRTADFPPSKLKSGYGEHVCYVLDCFAEEALKYIGFTWKRPIYPVEELEEESVAEDDAELTLNKVDEEFVEEETDNEENFIDLNVLKAQTYHLDMNETAKQEDILESTTDAAEWSLEVERVLPQLKVTIRTDNKDWRIHVDQMHQHRSGIESALKETKGFLDKLHNEITRTLEKISSREKYINNQLENLVQEYRAAQAQLSEAKERYQQGNGGVTERTRLLSEVMEELEKVKQEMEEKGSSMTDGAPLVKIKQSLTKLKQETVEMDIRIGIVEHTLLQSKLKEKSNMTRNMHATVIPEPATGFY | binds | binds
GMPPA (other, human, UniProt Q96IJ6 1-420, looked up) MLKAVILIGGPQKGTRFRPLSFEVPKPLFPVAGVPMIQHHIEACAQVPGMQEILLIGFYQPDEPLTQFLEAAQQEFNLPVRYLQEFAPLGTGGGLYHFRDQILAGSPEAFFVLNADVCSDFPLSAMLEAHRRQRHPFLLLGTTANRTQSLNYGCIVENPQTHEVLHYVEKPSTFISDIINCGIYLFSPEALKPLRDVFQRNQQDGQLEDSPGLWPGAGTIRLEQDVFSALAGQGQIYVHLTDGIWSQIKSAGSALYASRLYLSRYQDTHPERLAKHTPGGPWIRGNVYIHPTAKVAPSAVLGPNVSIGKGVTVGEGVRLRESIVLHGATLQEHTCVLHSIVGWGSTVGRWARVEGTPSDPNPNDPRARMDSESLFKDGKLLPAITILGCRVRIPAEVLILNSIVLPHKELSRSFTNQIIL | binds | binds

More lines, now with the values ahead:

binding result (LZTR1 R810W-FLAG) | binding result (LZTR1-FLAG) | Binder
binds | binds | GLE1 (other, human, UniProt Q53GS7 1-698, looked up) MPSEGRCWETLKALRSSDKGRLCYYRDWLLRREDVLEECMSLPKLSSYSGWVVEHVLPHMQENQPLSETSPSSTSASALDQPSFVPKSPDASSAFSPASPATPNGTKGKDESQHTESMVLQSSRGIKVEGCVRMYELVHRMKGTEGLRLWQEEQERKVQALSEMASEQLKRFDEWKELKQHKEFQDLREVMEKSSREALGHQEKLKAEHRHRAKILNLKLREAEQQRVKQAEQERLRKEEGQIRLRALYALQEEMLQLSQQLDASEQHKALLKVDLAAFQTRGNQLCSLISGIIRASSESSYPTAESQAEAERALREMRDLLMNLGQEITRACEDKRRQDEEEAQVKLQEAQMQQGPEAHKEPPAPSQGPGGKQNEDLQVKVQDITMQWYQQLQDASMQCVLTFEGLTNSKDSQAKKIKMDLQKAATIPVSQISTIAGSKLKEIFDKIHSLLSGKPVQSGGRSVSVTLNPQGLDFVQYKLAEKFVKQGEEEVASHHEAAFPIAVVASGIWELHPRVGDLILAHLHKKCPYSVPFYPTFKEGMALEDYQRMLGYQVKDSKVEQQDNFLKRMSGMIRLYAAIIQLRWPYGNRQEIHPHGLNHGWRWLAQILNMEPLSDVTATLLFDFLEVCGNALMKQYQVQFWKMLILIKEDYFPRIEAITSSGQMGSFIRLKQFLEKCLQHKDIPVPKGFLTSSFWRS
binds | binds | GUCY1B1 (other, human, UniProt Q02153 1-619, looked up) MYGFVNHALELLVIRNYGPEVWEDIKKEAQLDEEGQFLVRIIYDDSKTYDLVAAASKVLNLNAGEILQMFGKMFFVFCQESGYDTILRVLGSNVREFLQNLDALHDHLATIYPGMRAPSFRCTDAEKGKGLILHYYSEREGLQDIVIGIIKTVAQQIHGTEIDMKVIQQRNEECDHTQFLIEEKESKEEDFYEDLDRFEENGTQESRISPYTFCKAFPFHIIFDRDLVVTQCGNAIYRVLPQLQPGNCSLLSVFSLVRPHIDISFHGILSHINTVFVLRSKEGLLDVEKLECEDELTGTEISCLRLKGQMIYLPEADSILFLCSPSVMNLDDLTRRGLYLSDIPLHDATRDLVLLGEQFREEYKLTQELEILTDRLQLTLRALEDEKKKTDTLLYSVLPPSVANELRHKRPVPAKRYDNVTILFSGIVGFNAFCSKHASGEGAMKIVNLLNDLYTRFDTLTDSRKNPFVYKVETVGDKYMTVSGLPEPCIHHARSICHLALDMMEIAGQVQVDGESVQITIGIHTGEVVTGVIGQRMPRYCLFGNTVNLTSRTETTGEKGKINVSEYTYRCLMSPENSDPQFHLEHRGPVSMKGKKEPMQVWFLSRKNTGTEETKQDDD
binds | binds | GPD2 (other, human, UniProt P43304 43-727, looked up) ADCISEPVNREPPSREAQLLTLQNTSEFDILVIGGGATGSGCALDAVTRGLKTALVERDDFSSGTSSRSTKLIHGGVRYLQKAIMKLDIEQYRMVKEALHERANLLEIAPHLSAPLPIMLPVYKWWQLPYYWVGIKLYDLVAGSNCLKSSYVLSKSRALEHFPMLQKDKLVGAIVYYDGQHNDARMNLAIALTAARYGAATANYMEVVSLLKKTDPQTGKVRVSGARCKDVLTGQEFDVRAKCVINATGPFTDSVRKMDDKDAAAICQPSAGVHIVMPGYYSPESMGLLDPATSDGRVIFFLPWQKMTIAGTTDTPTDVTHHPIPSEEDINFILNEVRNYLSCDVEVRRGDVLAAWSGIRPLVTDPKSADTQSISRNHVVDISESGLITIAGGKWTTYRSMAEDTINAAVKTHNLKAGPSRTVGLFLQGGKDWSPTLYIRLVQDYGLESEVAQHLAATYGDKAFEVAKMASVTGKRWPIVGVRLVSEFPYIEAEVKYGIKEYACTAVDMISRRTRLAFLNVQAAEEALPRIVELMGRELNWDDYKKQEQLETARKFLYYEMGYKSRSEQLTDRSEISLLPSDIDRYKKRFHKFDADQKGFITIVDVQRVLESINVQMDENTLHEILNEVDLNKNGQVELNEFLQLMSAIQKGRVSGSRLAILMKTAEENLDRRVPIPVDRSCGGL
